Molecular target: CrtSPARTA (heterodimeric TIR-APAZ/short pAgo complex from Crenotalea thermophila) (Crenotalea thermophila)
Test: cryo-EM structure

Question: Which results are given for “CrtSPARTA (heterodimeric TIR-APAZ/short pAgo complex from Crenotalea thermophila)”?
Answer: stoichiometry N (heterodimers in the assembly (octamer)): 4; stoichiometry N (heterodimers in the assembly (tetramer)): 2

From article doi:10.1101/2023.07.12.548734
